Data as given in article PMC11786531.

Molecular target: heparan sulfate proteoglycans
Test: SPR competition (HSPG with LF or LF mutant flowed over PEDV S protein immobilised on a CM5 chip)
Conditions: parent: est. 5.0; read off a plot

Substance	response [RU]
Lactoferrin (from UniProt P14632) G1607L	3.5
Lactoferrin (from UniProt P14632) P1641L	69
Lactoferrin (from UniProt P14632) P1963L	69
